Assay: soluble on expression in E. coli; label from the status in PepcDB or PDB records

| Sequence | soluble on expression in E. coli |
| --- | --- |
| MGSDKIHHHHHHVKSDYYKEPIVINTDALIPPSPSDDMWKNRKRAYYMYDAPDVPTCSIVVTGYNRLHKTKYCVECILKYTRDVDYELILVDNGSDDGTLDFFQSVPYENKTIIRMTQNKGATLPFKYYINILKGKYIVNISNDIYVTQNWLSNLLKCYQSDPKIGFVEPVSSNVSNLQEVDLGFSDFDDMQKKAAAFNQSDPAKWEERLRLISVINVFLRDVLDNVGINDAAYFYDFIEDDLCARIRRMGYKLVLCRDTWICHDHDFRNLEDKDPVAFQASLEHGRAVYRKKYYGIDPWDDINNFELTLLAQLDTAKIPRAVKALTVDVRCGAPALEIRNRLKRRGITDVASYAFTTAAKYYLDLQTVCSEVQCDRIDFIQQHYANGTFDLVVLGEPVNTYPLPVRLLQNLYDFLKPGGLLLFKVRNTDDYRAFLRSIGMEVASDPDLPASTPLNEVLACLKLFGAVDCTVAGELESISVADQEFLMNKLKAANPNADQATLNRLCIKDYCIKVIRK | not soluble |
| MGSDKIHHHHHHMSMILTSKFVDRERELNFLREHYHSGKAELIVIYGRRRIGKTYLLRKFLEETNGIYLLAEENETNLEDFSLRLADYFKDPFLKENPIRTWGAFFTYLAGKSTKRLVVVIDGVQYLVRAEKGFLSTLQKYWDLYLSSTKIMLILCGSLVSFMEGILSGKSPIYGRRTGTWKVEEMSFFDVLKFHPIDIETAIKIYGVFGGVPQYWVDYDPGKDFWENIKDLVLSKGAKYYDEPKYLLKEELRDVSRYFSILRAISLGYSRFGQIADAARIETKSLGKYLNVLEEMGYIREEKPIVGRGKTVYKINEHFFNFWFRFVFPRRSEIEMGFDVVEEIKKEFNNYLGPVFEEISRQFLIEMNKRKKLPFRFTKIGRWWYKGEEIDLVALNEDEKKALFIEVKWKNLERKEAYKILKDLKRKAELTGLHDWNKAYGIIAKSIMEKEELREEGFLAWDLRDFELIN | not soluble |
| MRDNASLAHTQWNCKYHIVFVPKYRRQVIYGKIKKDIGQILRKLCEMKGVEIIEASLCPDHIHMLVSIPPKISVSSFMGYLKGKSSLMIFDRHANLKYKYGNRHFWCRGYYVDTVGRNRKAIEQYIRRQLQEDIASDQISLNEYIDPFTGERVNKSKK | soluble |
| MAHHHHHHMRVRHKVRNAVLLKGGEADTVKPLFLLNKIKNRKLQKRNNVTLHMDNSNEDTSRLSLLKNLDDESKVITQSPEWNEKMPLLEITNLHAMEVEGGKEILKGINLTIFLGEKHTIMGRNGSGKSTLAKVIAGHPYYKVTSGTIKFKGLNLSELPVNVRSLCGIFLAFQYPVELPMVKNNEFLRAALNSHRRQRNEPEISATEFDLLMIEEIKKVGLSSEFLDRPVNYGFSGGEKKRNEILQMLILKPSFCILDETDSGLDVDSFKLTSNVITNFSNEKNSFLIVTHYKKLLELLRPNFIHIMHQGKIIESGDYSLVDKIEAKGYAQFVKDS | not soluble |
| MDIILGIRVQDSVILASSKAVTRGISVLKDSDDKTRQLSPHTLMSFAGEAGDTVQFAEYIQANIQLYSIREDYELSPQAVSSFVRQELAKSIRSRRPYQVNVLIGGYDKKKNKPELYQIDYLGTKVELPYGAHGYSGFYTFSLLDHHYRPDMTTEEGLDLLKLCVQELEKRMPMDFKGVIVKIVDKDGIRQVDDFQAQ | soluble |
| RGRGPEAAAQEEAEEVGRSGPGRRAAQRRSPGLAMLLASAVVVWEWLNEHGRWRPYSPAVSHHIEAVVRAGPRAGGSVVLGQVDSRLAPYIIDLQSMNQFRQDTGTLRPVRRNYYDPSSAPGKGVVWEWENDNGSWTPYDMEVGITIQHAYEKQHPWIDLTSIGFSYVIDFNTMGQINRQTQRQRRVRRRLDLIYPMVTGTLPKAQSWPVSPGPATSPPMSPCSCPQCVLVMSVKAAVVNGSTGPLQLPVTRKNMPPPGVVKLPPLPGSGAKPLDSTGTIRGPLKTAPSQVIRRQASSMPTGTTMGSPASPPGPNSKTGRVALATLNRTNLQRLAIAQSRVLIASGVPTVPVKNLNGSSPVNPALAGITGILMSAAGLPVCLTRPPKLVLHPPPVSKSEIKSIPGVSNTSRKTTKKQAKKGKTPEEVLKKYLQKVRHPPDEDCTICMERLTAPSGYKGPQPTVKPDLVGKLSRCGHVYHIYCLVAMYNNGNKDGSLQCPTCKTIYGVKTGTQPPGKMEYHLIPHSLPGHPDCKTIRIIYSIPPGIQGPEHPNPGKSFSARGFPRHCYLPDSEKGRKVLKLLLVAWDRRLIFAIGTSSTTGESDTVIWNEVHHKTEFGSNLTGHGYPDANYLDNVLAELAAQGISEDSTAQEKD | soluble |
| MTTMRTGSQIFMRSGQWNELWKEKNVPLRFTNPNISFDGSERTKAEIEVVDSQEKSLVTRNMQIIPWQHDIANLHLPERDSLILMPCATRTVGRRLTARNIGLADTRGNCDISWPGVMIKIYGQQAVTSARSHQKTAVLFSVRRAQVAAMILTYPWLLSEPVRVIARYSGVSVGTVSNALKIFQKAGYLAETMDGHRLVNAELFLSAWARAYPTGLGADLELLRGKAQQLPPYNLEHLGVKASESAVSDHISDGQSASLYLGEETFSPKVIKELRLVKNPAGTITLRRAFWNTIDVKEIPEAIVYADLLNSDDARLWDVAQIIKAIILKRARGDWLGDQDG | not soluble |
| MMKIAIIGSGISGLTCGYYLHRYHDITLFEANDYIGGHTATVDVELAGKPYAVDTGFIVYNDRTYPNFIKMMDEIGVQGKPTQMSFSVRNDANGLEYNGHTLTTLFAQKRNWLNPKFYRFIAEILRFNRLTKACVDNQLANEQTLGDFLAQHQFSEYFCENYILPMGAAIWSSSLADMRAFPLMFFARFFLNHGLLDVTNRPQWYVIPGGSRSYIAPLTQGFGDRIRLNSAVTQVKRLPSGVEVVVNGRSERFDEVIFACHSDQALAMLSDASSTEQQLLSALAYQANEVVLHTDTRLLPKRKAAWAAWNYWLKGEANQETRLPSLTYNMNILQHIEAPETFCVTLNSSEDIDPSKILRRFTYHHPVFSRPAIEAQQKKAQISGVNHTWFCGAYWHNGFHEDGVRSALDVVTQLEAYAQRSEQGAALEHHHHHH | soluble |
| MPLLGLLPRRAWASLLSQLLRPPCASCTGAVRCQSQVAEAVLTSQLKAHQEKPNFIIKTPKGTRDLSPQHMVVREKILDLVISCFKRHGAKGMDTPAFELKETLTEKYGEDSGLMYDLKDQGGELLSLRYDLTVPFARYLAMNKVKKMKRYHVGKVWRRESPTIVQGRYREFCQCDFDIAGQFDPMIPDAECLKIMCEILSGLQLGDFLIKVNDRRIVDGMFAVCGVPESKFRAICSSIDKLDKMAWKDVRHEMVVKKGLAPEVADRIGDYVQCHGGVSLVEQMFQDPRLSQNKQALEGLGDLKLLFEYLTLFGIADKISFDLSLARGLDYYTGVIYEAVLLQTPTQAGEEPLNVGSVAAGGRYDGLVGMFDPKGHKVPCVGLSIGVERIFYIVEQRMKTKGEKVRTTETQVFVATPQKNFLQERLKLIAELWDSGIKAEMLYKNNPKLLTQLHYCESTGIPLVVIIGEQELKEGVIKIRSVASREEVAIKRENFVAEIQKRLSES | soluble |
| MKFKKLFSRLLLATGIMFAGTFTYQNIEHTHVSKAASYNYYTKGQCTWWAYQRRAQLGKPVSNRWGNAKNWYYNAKRSGYRTGHTPKRYAVMQSTAGYYGHVAVVERVYSNGSIKVSEYNYNRPSAYGTRYLSKWSARNYNYIYLEHHHHHH | not soluble |
| GEINGVSGIFPASSVEVIKQLPQPPPLCRALYNFDLRDKDKSENQDCLTFLKDDVITVISRVDENWAEGKLGDKVGIFPILFVEPNVSARHLLQNKGHQLSRTRHLSLMSSPSRGKATNTSSLRKSPGSRRKGSGQFSMTTALNTLNRTVHSPEGHQMVEISTPMLISSNSPSVLTQHGDKADFPTSSTGQVSSSQPAPASPGHSTAMVSVPSSQQHLSNNMFVALHTYSAHRPEELDLQKGEGIRVLGKYQDGWLKGLSLLTGRTGIFPSDYVIPVFSSTARKTSSFPDSRSPTVCTTWALSTSSVSSQGSFAEGDPRQSGPFKSVFVPTAVVNPSRSTPGPGSSGQGSLRKVRSSMRKNGSLQRPVQSGIPTFMVGSLRCSPTMVIRPQRFQFYPPQGMTPSPTPIMVEMGSKSIYTGEPALTCINRGSKTRIHSAGNSIIMEGKETPIKSEPPPKPPASAPPSILVKPENSKNGTEKQVKTVRFQNYSPPPTKHSASSPTSGKHDHPATLKGSQHEAVSSGGEMTILFAHRSGCHSGQQTDLRRKSAFGKTMPLLSTASATQTLFPSK | soluble |
| MGSDKIHHHHHHMSSLQILQGTFRLSDTKTLQLPQLTLNAGDSWAFVGSNGSGKSALARALAGELPLLKGERQSQFSHITRLSFEQLQKLVSDEWQRNNTDMLGPGEDDTGRTTAEIIQDEVKDAPRCMQLAQQFGITALLDRRFKYLSTGETRKTLLCQALMSEPDLLILDEPFDGLDVASRQQLAERLASLHQSGITLVLVLNRFDEIPEFVQFAGVLADCTLAETGAKEELLQQALVAQLAHSEQLEGVQLPEPDEPSARHALPANEPRIVLNNGVVSYNDRPILNNLSWQVNPGEHWQIVGPNGAGKSTLLSLVTGDHPQGYSNDLTLFGRRRGSGETIWDIKKHIGYVSSSLHLDYRVSTTVRNVILSGYFDSIGIYQAVSDRQQKLVQQWLDILGIDKRTADAPFHSLSWGQQRLALIVRALVKHPTLLILDEPLQGLDPLNRQLIRRFVDVLISEGETQLLFVSHHAEDAPACITHRLEFVPDGGLYRYVLTKIY | not soluble |
| MDFVTGAVAHRRKFGGGRGQSIAKAVGLKQGVTPKVVDGTAGLGRDAFVLASLGCTVTMVERHPVVAALLEDGLRRAYQDAEIGDWMRERMQLFHGSSLEALAKLEQGVDVVYLDPMYPHRDKSALVKKEMRVFQTLVGADLDADGLLAPAMALASKRVVVKRPDYAEDLAGVKPSMVIETKKNRFDVYVKSAMKLEHHHHHH | not soluble |
| GSHMEKRTPHTRLSQVKKLVNAGQVRTTRSALLNADELGLDFDGMCNVIIGLSESDFYKSMTTYSDHTIWQDVYRPRLVTGQVYLKITVIHDVLIVSFKEK | soluble |
| GPGSMLVDRLQLSCEGTTTAGFTPLLEQFDKGTATQERGAEERAEGNLTPLRVYFRNKRHSLWGHRLWNAAKYMVKRMDSRMIDVRGKTVLELGAGLGVPSLAAFRNGARCVVATDYPDGDLLEILEMNVKANCRADLIDADAAAFLLQEAERLKLAQGYEKSGETVFSEAERQRALSTRCVVEPLLWGKQEHIQKVMSYTGGGGFDIVLLSDILFNHVCNDDLADTIVRVLQRSQHAAAYCVFSHHRAHKQVEDLEFFDKCVARGLRFEQVDEENYPMMFPDDSGPAEIRQPVKTYKIVHYFDDAGMAFQPGNDVFDVVIQGTGMVESIVSAALARSGIRVLHCDGEDDYGGAFKTMTVERMREYITGPLPASLDGAADNRDGRGDHEENHPRCNDGVIAVDRMDELKLHERRSFLLDLLPTHNLSNGETVRQLITSDMARHME | not soluble |
| MLTEERHQKILQLLDQKSVVKSQELASLFNASESTIRRDLQELEDANLLERIHGGAKRILNLGFEQNMTEKSIKNTHEKQKIASLAVSCVQDGDMIYLDAGSTTLEMIPFLVGKQIHVVTNSVHHAAKLSDMEIPTIMLGGTLKLSTKAIIGATSMEQLQHFRFNKAFLGTNGAHLEFGLTTPDPEEAALKALAIHQAETAYVLLDHTKFNEVTFTKVEELESVTLLTDYCPAESLQGFQQKTILMEANKLEHHHHHH | soluble |
| MISIVIPLYNQVAYTQLCVQSLRRAGLNGVDVLLIDNGSTDGTAEYLKSCSDLRVIRNRENLGCAGAWNQGVRETTSEWVMILNNDVVVSPGWLDGLLEAAGKEGLDVVSPAIREGEYNYDIEGYSQEFVGRMGDVVRRGVADGICFMVRRRVFEVVGLFDENFRIGQFEDADFFRRARNAGFRLGTTGRSFIHHFGSVTQDAIRKNRPERPYVAENRAYFREKWQLTRGRRLIERWRRKLREFAWQKCERMFHGHTLKEKWLGGRLRYYLEHHHHHH | not soluble |

Source: the DeepSol protein solubility set
